Test results: patent publication US20030170760A1

Target: T1, Ste2 (yeast) (UniProt D6VTK4)
T1 sequence (looked up): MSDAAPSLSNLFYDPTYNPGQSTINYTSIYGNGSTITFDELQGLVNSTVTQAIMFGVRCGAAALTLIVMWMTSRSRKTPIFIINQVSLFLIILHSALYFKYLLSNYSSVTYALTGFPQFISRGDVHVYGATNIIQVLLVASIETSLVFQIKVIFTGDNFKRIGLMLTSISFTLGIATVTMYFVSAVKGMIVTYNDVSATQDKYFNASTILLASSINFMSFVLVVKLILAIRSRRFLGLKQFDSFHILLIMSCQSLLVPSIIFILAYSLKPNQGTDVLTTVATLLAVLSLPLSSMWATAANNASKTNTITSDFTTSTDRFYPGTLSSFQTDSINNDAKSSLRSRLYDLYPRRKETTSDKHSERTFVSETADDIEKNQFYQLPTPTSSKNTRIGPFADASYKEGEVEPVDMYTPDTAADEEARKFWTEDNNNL
Assay: cell-based or functional assay

Substance: α-factor (from UniProt P01149 90-102) (peptide)
- Maximum Fold Induction, lacZ assay, Fus1p-lacZ reporter, ligand incubation 1 hr, Gα GPA1: 22 fold
- Maximum Fold Induction, lacZ assay, Fus1p-lacZ reporter, ligand incubation 2 hrs, Gα GPA1: 123 fold
- Maximum Fold Induction, lacZ assay, Fus1p-lacZ reporter, ligand incubation 3 hrs, Gα GPA1: 218 fold
- Maximum Fold Induction, lacZ assay, LBF system (p8op-lacZ reporter), ligand incubation 1 hr, Gα GPA1: 29 fold
- Maximum Fold Induction, lacZ assay, LBF system (p8op-lacZ reporter), ligand incubation 2 hrs, Gα GPA1: 63 fold
- Maximum Fold Induction, lacZ assay, LBF system (p8op-lacZ reporter), ligand incubation 3 hrs, Gα GPA1: 36 fold
